Sequences and labels used below:
B1: OTC (E. coli ornithine transcarbamoylase, argI) (Escherichia coli K-12; E300Q) (protein)
chain: SGFYHKHFLKLLDFTPAELNSLLQLAAKLKADKKSGKEEAKLTGKNIALIFEKDSTRTRCSFEVAAYDQGARVTYLGPSGSQIGHKESIKDTARVLGRMYDGIQYRGYGQEIVETLAEYASVPVWNGLTNEFHPTQLLADLLTMQEHLPGKAFNEMTLVYAGDARNNMGNSMLEAAALTGLDLRLVAPQACWPEAALVTECRALAQQNGGNITLTEDVAKGVEGADFIYTDVWVSMGEAKEKWAERIALLREYQVNSKMMQLTGNPEVKFLHCLPAFHDDQTTLGKKMAEEFGLHGGMQVTDEVFESAASIVFDQAENRMHTIKAVMVATLSK
notes: full length, uncleaved 6xHis tag, pCA24N ASKA clone, expressed in BL21(DE3) Tuner; homotrimer of 333-residue subunits
B2: Escherichia coli ornithine transcarbamoylase (OTC) variant D231A, His-tagged (enzyme, E. coli)
chain: B1 chain with D231A, Q299E
notes: Anabolic ornithine transcarbamoylase of E. coli, argI gene, 333-residue subunit; Made by site-directed mutagenesis of the ASKA pCA24N plasmid; 6x-His tag not cleaved; source: E. coli BL21 (DE3) Tuner, purified (HisTrap FF, Superdex 200 SEC)
B3: OTC (E. coli ornithine transcarbamoylase, argI) (Escherichia coli K-12; D141N) (protein)
chain: B1 chain with D140N, Q299E
notes: as for B1
B4: Escherichia coli ornithine transcarbamoylase (OTC), wild type, His-tagged (enzyme, E. coli)
chain: B1 chain with Q299E
notes: Anabolic ornithine transcarbamoylase of E. coli, argI gene, 333-residue subunit; Expressed from the ASKA plasmid pCA24N; also called WT OTC; anabolic OTC; source: E. coli BL21 (DE3) Tuner, purified (HisTrap FF, Superdex 200 SEC)
B5: OTC (E. coli ornithine transcarbamoylase, argI) (Escherichia coli K-12; R58A) (protein)
chain: B1 chain with R57A, Q299E
notes: as for B1
B6: Escherichia coli ornithine transcarbamoylase (OTC) variant Y160S, His-tagged (enzyme, E. coli)
chain: B1 chain with Y160S, Q299E
notes: as for B2
B7: OTC (E. coli ornithine transcarbamoylase, argI) (Escherichia coli K-12; H273L) (protein)
chain: B1 chain with H272L, Q299E
notes: as for B1
B8: Escherichia coli ornithine transcarbamoylase (OTC) variant Y229S, His-tagged (enzyme, E. coli)
chain: B1 chain with Y229S, Q299E
notes: as for B2
B9: Escherichia coli ornithine transcarbamoylase (OTC) variant S61A, His-tagged (enzyme, E. coli)
chain: B1 chain with S61A, Q299E
notes: Anabolic ornithine transcarbamoylase of E. coli, argI gene, 333-residue subunit; Made by site-directed mutagenesis of the ASKA pCA24N plasmid; 6x-His tag not cleaved; also called negative control; source: E. coli BL21 (DE3) Tuner, purified (HisTrap FF, Superdex 200 SEC)
B10: Escherichia coli ornithine transcarbamoylase (OTC) variant Y229F, His-tagged (enzyme, E. coli)
chain: B1 chain with Y229F, Q299E
notes: as for B2
B11: Escherichia coli ornithine transcarbamoylase (OTC) variant Q104L, His-tagged (enzyme, E. coli)
chain: B1 chain with Q104L, Q299E
notes: as for B9
B12: Escherichia coli ornithine transcarbamoylase (OTC) variant Y160F, His-tagged (enzyme, E. coli)
chain: B1 chain with Y160F, Q299E
notes: as for B2

Changes are numbered by the printed parent chain. Names and notes keep the numbering of the source.

Substrate in the first data set: NCCC[C@H](N)C(=O)O
The data set can be described thus: purified protein. Conditions: 50 mM Tris pH 8.5, 20 °C, 20 mM NaCl, carbamoyl phosphate 5 mM.
As to B1, the Km (commonly the concentration of substrate that gives half-maximal velocity) is 330 ± 100 µM; the turnover number (kcat) (commonly the number of substrate molecules converted per active site and unit of time at saturation) worked out at 5.1 s⁻¹; the kcat/Km (commonly the turnover number divided by the Michaelis constant) stood at 16000 M⁻¹ s⁻¹.

In the case of B2, the Michaelis constant (Km) worked out at 590 ± 330 µM, the kcat worked out at 0.7 s⁻¹ and the specificity constant (kcat/Km) was found to be 1400 M⁻¹ s⁻¹.

Regarding B3, the Michaelis constant (Km) was 17000 ± 5900 µM, the catalytic constant (kcat) was 460 s⁻¹ and the kcat/Km was 30000 M⁻¹ s⁻¹.

Consider B4, for which the Km stood at 530 ± 55 µM, the kcat turned out to be 440 s⁻¹ and the specificity constant (kcat/Km) amounted to 830000 M⁻¹ s⁻¹.

For the molecule B5, the Michaelis constant (Km) is 440 ± 92 µM, the kcat worked out at 8.2 s⁻¹ and the catalytic efficiency (kcat/Km) was 19000 M⁻¹ s⁻¹.

As for B6, the Michaelis-Menten constant (Km) was found to be 7300 ± 2000 µM, the kcat was determined as 410 s⁻¹ and the specificity constant (kcat/Km) amounted to 61000 M⁻¹ s⁻¹.

For a further data set, the target named is T1, OTC (E. coli ornithine transcarbamoylase, argI) (Escherichia coli, UniProt P04391).
T1 construct: full length, uncleaved 6xHis tag, pCA24N ASKA clone, expressed in BL21(DE3) Tuner; homotrimer of 333-residue subunits
T1 sequence (P04391 2-334): B1 chain with Q299E
The data set is described as follows: thermal shift (Sypro Orange). The class given is binding. The conditions noted are these: absolute Tm, not dTm; 1 mM carbamoyl phosphate, 10 μM enzyme, 50 mM HEPES pH 8, 200 mM NaCl, 2 mM DTT. From the text: thermal shift (Sypro Orange) on OTC (E. coli ornithine transcarbamoylase, argI)
Take `NC(=O)OP(=O)(O)O` [CP, carbamoyl phosphate]: the “enzyme +cp” value came out at 70 ± 0.5 °C.

Substrate in the next data set: NC(=O)OP(=O)(O)O
The data set can be described thus: purified protein. Conditions: 50 mM Tris pH 8.5, 20 °C, 20 mM NaCl, ornithine 3 mM. In kind it is biochemical, Escherichia coli.
B7: the Km worked out at 930 ± 580 µM, the catalytic constant (kcat) was found to be 4.2 ± 1.8 s⁻¹ and the kcat/Km worked out at 5000 ± 1100 M⁻¹ s⁻¹.

In the case of B1, the Michaelis constant (Km) is 340 ± 110 µM, the kcat came out at 4.6 ± 1 s⁻¹ and the kcat/Km turned out to be 14000 ± 3300 M⁻¹ s⁻¹.

With B2, the Km was 150 ± 42 µM, the kcat is 0.48 ± 0.1 s⁻¹ and the specificity constant (kcat/Km) came to 3400 ± 1300 M⁻¹ s⁻¹.

Regarding B4, the Michaelis-Menten constant (Km) stood at 270 ± 34 µM, the catalytic constant (kcat) came out at 410 ± 20 s⁻¹ and the kcat/Km is 1.5e+06 ± 130000 M⁻¹ s⁻¹.

On to B5, for which the Km turned out to be 280 ± 27 µM, the kcat is 7.5 ± 1.8 s⁻¹ and the catalytic efficiency (kcat/Km) was found to be 27000 ± 7300 M⁻¹ s⁻¹.

The same data set, now with this note: 50 mM Tris pH 8.5, 20 °C, 20 mM NaCl, ornithine 60 mM (variants with ORN KM above 3 mM).
With B3, the Km was 1400 ± 450 µM, the kcat was 360 ± 59 s⁻¹ and the kcat/Km was 290000 ± 90000 M⁻¹ s⁻¹.

The next data set deals with the molecule itself. The data set is described as follows: SEC-SAXS; in-line SEC-SAXS on a Superdex 200 5/150 GL column; enzyme at 4.3-5.5 mg/mL; apo state, and after incubation with 5 mM CP or 10 mM ORN; self-association of the enzyme (trimer).
Details: not given
On the technique in general: Size exclusion chromatography separates by hydrodynamic size, large species first.
In the case of B8, the binding result is reported as “binds”.

Regarding B2, the binding result is “binds”.

For the molecule B9, the binding result is listed as “binds”.

Turning to B10, the binding result is on record as “binds”.

With B4, the stoichiometry N (in general, a count of units in the complex or per binding partner) was 3.

Consider B11, for which the binding result is on record as “binds”.

For B12, the binding result is reported as “binds”.

With B6, the binding result is “binds”.

These data come from paper PMC7004355 (PLoS ONE, 2020).
